Data reported in patent USRE45968 (SIGMA TAU INDUSTRIE FARMACEUTICHE RIUNITE S PA, dated 2016).

B1: MB5/C′1 scFv antibody, soluble form (scFv)
scFv: RTMEEVQLQESGAEVKKPGASVKVSCKASGYTFTASYMHWVRQAPGQGLEWMGWFNPNSGGTNYAQKFQGRVTMTGDTSTSTGYMELSRLTSDDAAVYYCARDRASAMGVWGQGTLVTVSSGGGGSGGGGSGGGGSQSALTQPASVSGSPGQSITISCTGTSSDVGGYNYVSWYQQHPGKAPKLMIYDVSHRPSGISNRFSGSKSGNTASLTISRLQAEDEADYYCSSYTSSNTFIFGTGTQLTVLGAA
notes: domain: first two amino acids of the mature AP protein; cloned in pKM16 and produced in soluble form; also called MBB5/C′1; not shown: FLAG/His-tail at the carboxyl-terminus (pKM16)
B2: MB5/C′3 scFv antibody, soluble form (scFv)
scFv: RTMEQVQLVQSGAEVKKPGASVKVSCKASGYTFTASYMHWVRQAPGQGLEWMGWFNPNSGGTNYAQKFQGRVTMTGDTSTSTGYMELSRLTSDDAAVYYCARDRASAMGVWGQGTLVTVSSGGGGSGGGGSGGGGSQSALTQPASVSGSPGQSITISCTGTSSDVGGYNYVSWYQQHPGKAPKLMIYDVTNRPSGVSSRFSGSKSGNTASLTISGLQTEDEADYYCNSFTSSNTYVFGTGTQLTVLGAA
notes: domain: first two amino acids of the mature AP protein; cloned in pKM16 and produced in soluble form; not shown: FLAG/His-tail at the carboxyl-terminus (pKM16)
B3: CB37/3B scFv antibody, soluble form (scFv)
scFv: RTMEEVQLVQSGGGLIQPGGSLRLSCVASEFNVRSNYMSWVRQAPGKGLEWVSVMYDGGSTYYADSVKGRFTISRDNSKNTVYLQMNSLRAEDTAVYYCARGGLGLPTIAPWEIWGQGTMVTVSSGGGGSGGGGSGGGGSSYVLTQPPSVSVAPGKTATITCAGNNIGSNSVYWYQQKPGLAPVLVVYDDRDRPSGIHERFSGSKSGNTATLTISRVEAGDEADYSCQVWDPSSDHLYVFGTGTQLTVLGAA
notes: domain: first two amino acids of the mature AP protein; not shown: FLAG/His-tail at the carboxyl-terminus (pKM16)
B4: CB37/9C scFv antibody, soluble form (scFv)
scFv: RTMEEVQLVQSGGGLIQPGGSLRLSCVASEFNVRSNYMSWVRQAPGKGLEWVSVMYDGGSTYYADSVKGRFTISRDNSKNTVYLQMNSLRAEDTAVYYCARGGLGLPTIASWEIWGQGTMVTVSSGGGGSGGGGSGGGGSSYVLTQPPSVSVAPGKTATITCAGNNIGSNSVYWYQQKPGLAPVLVVYDDRDRPSGLPGRFSGSKSGNTATLTISRVEAGDEADYSCQVWDPSSDHLYVFGTGTQLTVLGAA
notes: as for B2

Key:
[1] = target: T1, GST-fused MUC1 recombinant protein, containing a 107-aa MUC1 sequence, containing 5.3 repeats (UniProt P08515 1-218 = GST; P15941 126-232); experiment: Surface Plasmon Resonance (Biacore), soluble scFv
T1 construct: Biotinylated for the selections; also called Recombinant MUC1 protein; MUC1 tumor antigen

[2] = target: T2, Human CEA protein, purified from colon carcinoma and liver metastases (human, UniProt P06731 35-685, limits assumed); experiment: Surface Plasmon Resonance (Biacore), soluble scFv
T2 construct: Bought; Biotinylated for the selections; also called carcino-embryonic antigen
T2 sequence (looked up): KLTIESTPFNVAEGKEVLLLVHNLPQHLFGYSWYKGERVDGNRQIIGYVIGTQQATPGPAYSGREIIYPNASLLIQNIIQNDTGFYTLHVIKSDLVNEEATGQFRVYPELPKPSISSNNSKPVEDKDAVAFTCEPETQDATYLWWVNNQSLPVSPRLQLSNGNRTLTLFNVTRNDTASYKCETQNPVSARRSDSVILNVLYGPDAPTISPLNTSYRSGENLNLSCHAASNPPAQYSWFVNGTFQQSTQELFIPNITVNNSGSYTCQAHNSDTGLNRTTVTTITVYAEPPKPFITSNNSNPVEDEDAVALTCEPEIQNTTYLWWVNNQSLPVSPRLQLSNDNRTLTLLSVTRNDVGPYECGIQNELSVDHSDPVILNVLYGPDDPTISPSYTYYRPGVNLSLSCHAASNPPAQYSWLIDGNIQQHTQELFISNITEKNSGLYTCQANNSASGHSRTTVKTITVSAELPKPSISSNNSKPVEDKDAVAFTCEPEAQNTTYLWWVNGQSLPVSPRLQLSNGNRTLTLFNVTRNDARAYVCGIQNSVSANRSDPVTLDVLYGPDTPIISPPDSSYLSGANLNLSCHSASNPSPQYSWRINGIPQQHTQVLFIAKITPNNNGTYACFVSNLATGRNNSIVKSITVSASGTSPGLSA

Binder	Kd [1] [nM]	Kd [2] [nM]
B1	9.46	–
B2	23.1	–
B3	–	3.66
B4	–	1.42
